Results on three substances are retold here after article PMC4348151.

In test [1] the target is gp41-longNC. The test can be described thus: BLI. To be noted: pH 4.0; second pH 7.0; 0.1% DPC.
Test [2] deals with gp41-longNC (HIV-1) (UniProt P04578). As to the kind of experiment: AUC.

For orientation: stoichiometry N means a count of units in the complex or per binding partner.

With 2F5, in test [1], the “fold difference in KD at pHs 4 and 7” value was 4,000-fold.

4E10: the fold difference in test [1] is on record as 30-fold.

For the substance “gp41-longNC (from UniProt P04578) (domain or fragment)”, the stoichiometry N in test [2] is 3.
